First the molecules themselves.
B1: THAP1; numbered along this chain (parent)
chain: MVQSCSAYGCKNRYDKDKPVSFHKFPLTRPSLCKEWEAAVRRKNFKPTKYSSICSEHFTPDCFKRECNNKLLKENAVPTIFLCTEPHDKKEDLLEPQEQLPPPPLPPPVSQVDAAIGLLMPPLQTPVNLSVFCDHNYTVEDTMHQRKRIHQLEQQVEKLRKKLKTAQQRCRRQERQLEKLKEVVHFQKEKDDVSERGYVILPNDYFEIVEVPA

The variants in the data set derive from B1. Briefly: THAP1 transcriptional activity (GFP+/GFP- enrichment relative to wild-type constructs) (ratio to WT); higher = more THAP1 activity (PSMB5 reporter activation). The note with it: with PSMB5 promoter-GFP reporter. The procedure, abridged:
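Variants were counted by Illumina sequencing of genomic DNA amplicons from BFP+ cells sorted into GFP-bright and GFP-dim bins five days after lentiviral transduction, in duplicate at MOI ~0.3. The library changed each of residues 2–213 of human THAP1 to all 20 amino acids and was introduced into THAP1-knockout HEK-293T cells with mClover3 knocked in at endogenous PSMB5. Activity equals the replicate-mean bright/dim read fold change over the mean of wild-type synonymous constructs.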
As to MVQSCSAYGCKNRYDKDKPVSFHKFPLTRPSLCKEWEAAVRRKNFKPTKYSSICSEHFTPDCFKRECNNKLLKENAVPTIFLCTEPHDKKEDLLEPQEQLPPPPLPPPVSQVDMAIGLLMPPLQTPVNLSVFCDHNYTVEDTMHQRKRIHQLEQQVEKLRKKLKTAQQRCRRQERQLEKLKEVVHFQKEKDDVSERGYVILPNDYFEIVEVPA [A114M], the THAP1 transcriptional activity came to 0.387. Then MVQSCSAYGCKNRYDKDKPVSFHKFPLTRVSLCKEWEAAVRRKNFKPTKYSSICSEHFTPDCFKRECNNKLLKENAVPTIFLCTEPHDKKEDLLEPQEQLPPPPLPPPVSQVDAAIGLLMPPLQTPVNLSVFCDHNYTVEDTMHQRKRIHQLEQQVEKLRKKLKTAQQRCRRQERQLEKLKEVVHFQKEKDDVSERGYVILPNDYFEIVEVPA [P30V], with 0.418; and MVQSCSAYGCKNRYDKDKPVSFHKFPLTRPSLCKEWEAAVRRKNFKPTKYSSICSEHFTPDCFKRECNNKLLKENAVPTIFLCTEPHDKKEDLLEPQEQLPPPPLPPPVSQVDAAIGLLMPPLQTPVNLSWFCDHNYTVEDTMHQRKRIHQLEQQVEKLRKKLKTAQQRCRRQERQLEKLKEVVHFQKEKDDVSERGYVILPNDYFEIVEVPA [V131W], with 0.261. Then MVQSCSAYGCKNRYDKDKPVSFHKFPLTRPSLCKEWEAAVRRKNFKPTKYSSICSEHFTPDCFKRECNNKLLKENAVPTIFLCTEPHDKKEDLLEPQEQLPPPPLPPPVSQVDAAIGLLMPPLQTPVNLSVFCDHNYTVEDTMHQRKRIHQLEQQVEKLRKKLKTAQQRCRRQERQLEKLKEVVHFQKEKDDVSERGYLILPNDYFEIVEVPA [V199L], with 0.908; and MVQSCSAYGCKNRYDKDKPVSFHKFPLTRPSLCKEWEAAVRRKNFKPTKYSSICSEHFTPDCFKRECNNKLLKENAVPTIFLCTEPHDKKEDLLEPQEQLPPPPLPPPVSQVDAAIGLLMPPLQTPVNLSVFCDHNYTVERTMHQRKRIHQLEQQVEKLRKKLKTAQQRCRRQERQLEKLKEVVHFQKEKDDVSERGYVILPNDYFEIVEVPA [D141R], with 0.588; and MVQSCSAYGCKNRYDKDKPVSFHKFPLTRPSLCKEWEAAVRRKNFKPTKYSSICSEHFTPDCFKRECNNKLLKENAVPTIFLCTEPHDKKEDLLEPQEQLPPPPLPPPVSQVDAAIGLLMPPLQTPVNLSVFCDHNYTVEDTMHQRKRIHQLEQQVEKLRKKLKTAQQRCRRQERQLLKLKEVVHFQKEKDDVSERGYVILPNDYFEIVEVPA [E178L], with 1.02. On to MVQSCSAYGCKNRYDKDKPVSFHKFPLTRPSLCKEWEAAVRRKNFKPTKYSSICSEHFTPDCFKRECNNKLLKENAVPTIFLCTEPHDKKEDLLEPQEQLPPPPLPPPVSQVDAAIGLLMPPLQTPVNLSVFCDHNYKVEDTMHQRKRIHQLEQQVEKLRKKLKTAQQRCRRQERQLEKLKEVVHFQKEKDDVSERGYVILPNDYFEIVEVPA [T138K], for which the THAP1 transcriptional activity is 0.191. For MVQSCSAYGCKNRYDKDKPVSFHKFPLTRPSLCKEWEAAVRRKNFKPTKYSSICSEHFTPDCFKRECNNKLLKENAVPTIFLCTEPHDKKEDLLEPQEQLPPPPLPPPVSQVDAAIGLLMPPLQEPVNLSVFCDHNYTVEDTMHQRKRIHQLEQQVEKLRKKLKTAQQRCRRQERQLEKLKEVVHFQKEKDDVSERGYVILPNDYFEIVEVPA [T125E], the THAP1 transcriptional activity is 1.1.

Take MVQSCSAYGCKNRYDKDKPVSFHKFPLTRPSLCKEWEAAVRRKNFKPTKYSSICSEHFTPDCFKRECNNKLLKENAVPTIFLCTEPHDKKEDLLEPQEQLPPPPLPPPVSQVDAAMGLLMPPLQTPVNLSVFCDHNYTVEDTMHQRKRIHQLEQQVEKLRKKLKTAQQRCRRQERQLEKLKEVVHFQKEKDDVSERGYVILPNDYFEIVEVPA [I116M]: the THAP1 transcriptional activity was determined as 0.731. The figure for MVQSCSAYGCKNRYDKDKPVSFHKFPLTRPSFCKEWEAAVRRKNFKPTKYSSICSEHFTPDCFKRECNNKLLKENAVPTIFLCTEPHDKKEDLLEPQEQLPPPPLPPPVSQVDAAIGLLMPPLQTPVNLSVFCDHNYTVEDTMHQRKRIHQLEQQVEKLRKKLKTAQQRCRRQERQLEKLKEVVHFQKEKDDVSERGYVILPNDYFEIVEVPA [L32F] is 0.14; for MVQSCSAYGCKNRYDKDKPVSFHKFPLTRPSLCKEWEAAVRRKNFKPTKYSSICSEHFTPDCFKRECNNKLLKENAVPTIFLCTEEHDKKEDLLEPQEQLPPPPLPPPVSQVDAAIGLLMPPLQTPVNLSVFCDHNYTVEDTMHQRKRIHQLEQQVEKLRKKLKTAQQRCRRQERQLEKLKEVVHFQKEKDDVSERGYVILPNDYFEIVEVPA [P86E] it is 2.07; for MVQSCSAYGCKNRYDKDKPVSFRKFPLTRPSLCKEWEAAVRRKNFKPTKYSSICSEHFTPDCFKRECNNKLLKENAVPTIFLCTEPHDKKEDLLEPQEQLPPPPLPPPVSQVDAAIGLLMPPLQTPVNLSVFCDHNYTVEDTMHQRKRIHQLEQQVEKLRKKLKTAQQRCRRQERQLEKLKEVVHFQKEKDDVSERGYVILPNDYFEIVEVPA [H23R] it is 0.084. For MVQSCSAYGCKNRIDKDKPVSFHKFPLTRPSLCKEWEAAVRRKNFKPTKYSSICSEHFTPDCFKRECNNKLLKENAVPTIFLCTEPHDKKEDLLEPQEQLPPPPLPPPVSQVDAAIGLLMPPLQTPVNLSVFCDHNYTVEDTMHQRKRIHQLEQQVEKLRKKLKTAQQRCRRQERQLEKLKEVVHFQKEKDDVSERGYVILPNDYFEIVEVPA [Y14I], the THAP1 transcriptional activity was 0.119. Then MVQSCSAYGCKNRYDKDKPVSFHKFPLTRPSLCKEWEAAVRRKNFKPTKYSSICSEHFTPDCFKRECNNKLLKENAVPTIFLCTEPHDKKEDLLEPQEQLPPPPLPPPVSQVDAAIGLLMPPLQTPVNLSVFCDHNYTVEDTMHQRKRIHQLEQQVEKLRKKLKTAQQRCRRQERQLEKLKEVVHFQKEKDDVLERGYVILPNDYFEIVEVPA [S194L], with 0.808.

For the origin of these results see the supplement of paper PMC11811203.
